Assay results published in patent US20210324011A1 (University of Washington, published 2021).

B1: DHF58 (designed binder)
chain: MELLRVVMLVKEAEELLTLAVIKGSEDDLQKALRTAVEAAREAVKVLLQAVKRGDPEVALRAVELVVRVAELLLRIAKESGSELALKMALLVAEEAARLAKIVLELAEKQGDPEVALRAVELVVRVAELLLRIAKESGSEEALERALRVAEEAARLAKRVLELAEKQGDPEVARRAVELVKRVAELLERIARESGSEEAKERAERVREEARELQERVKELREREGLE
notes: vector pET28b; forms a homo-polymer; cryoEM PDB 6E9T (4-repeat structure); also called DHF58 four-repeat protomer
B2: DHF44 (designed binder)
chain: AVLALMVVNLLVQLAIELLSRAMLKGSAEDLEKALRTAEEAAREAKKVLEQAEKDGDPEVALLAVELVVVVATILLMIAKISGSEEALERALRVAEEAARLAKRVLELAEKQGDPEVALRAVELVVRVAELLLRIAKESGSEEALERALRVAEEAARLAKRVLELAEKQGDPEVARRAVELVKRVAELLERIARESGSEEAKERAERVREEARELQERVKELREREG
notes: vector pCDB24 (SUMO fusion); forms a homo-polymer
B3: DHF78 (designed binder)
chain: MGELVLLVAKLALAVAVQASALGDEEVFRKAAEKALELAKRLVELAKLIGDPELVLEAAKVALEVAELAAKNGDKEVFKKAAESALEVAKRLVEVASKEGDPELVLEAAKVALRVAELAAKNGDKEVFKKAAESALEVAKRLVEVASKEGDPELVEEAAKVAEEVRKLAKKQGDEEVYEKARETAREVKEELKRVREEKGLE
notes: vector pET28b; forms a homo-polymer
B4: DHF52 (designed binder)
chain: SLKELLELERVAVEAIVAAAEGNTMEVIEQLQRAMLIAVLSGTTSAVKLALEVVARVAIEAARIGNTDAVRIALSVALTIAVISGTTEAVKLALEVVARVAIEAARRGNTDAVREALEVALEIARESGTEEAVRLALEVVKRVSDEAKKQGNEDAVKEAEEVRKKIEEESG
notes: as for B2
B5: DHF38 (designed binder)
chain: AEELLKRVEKLVKEAEELLRQAMKKGSEELLEVALVVAQMAAREAKKVLTMAEVEGDPEVALRAVELVVRVAELLLRIALVSGSEEALERALRVAEEAARLAKRVLELAESQGDPEVALRAVELVVRVAELLLLIAKVSGSEEALERALRVAEEAARLAKRVLELAEKQGDPAVAILAVMLVKRVAELLENIARESGSEEAKERAERVREEARELQERVKELKERAG
notes: vector pCDB24 (SUMO fusion, removed with SUMO protease); forms a homo-polymer; cryoEM PDB 6E9Y
B6: DHF31 (designed binder)
chain: AAIETLNVMTLVMLALLLLIQAISKGSAEDLEKALRTAEEAAREAKKVLEQAEKEGDPDQALKAVELVVVVAQLLLQIAIASGSREALERALRVAEEAARLAKRVLELAEKQGDPEVALRAVELVVRVAELLLRIAKESGSEEALERALRVAEEAARLAKRVLELAEKQGDPEVARRAVELVKRVAELLERIARESGSEEAKERAERVREEARELQERVKELREREG
notes: as for B2
B7: DHF62 (designed binder)
chain: MGIVLVIESLEAEVRLEKAKVLSVLARVRGDLKELAEALIEEARAVQELARVACEKGNSEEAERASEKAQRVLEEARKVSEEAREQGDDEVLALALIAIALAVLALAEVACCRGNSEEAERASEKAQRVLEEARKVSEEAREQGDDEVLALALIAIALAVLALAEVACCRGNKEEAERAYEDARRVEEEARKVKESAEEQGDSEVKRLAEEAEQLAREARRHVQECRGLE
notes: as for B3
B8: DHF5 (designed binder)
chain: ALDLLARVIVLVMEAVKLLVLAVIMGLEMILRVALRLAEEAARAAKAVLLLAEVEGDPEVALKAVELVVRVAELLLRIAKESGSEEALERALRVAEEAARLAKRVLELAEKQGDPEVALRAVELVVRVAELLLRIAKESGSEEALERALRVAEEAARLAKRVLELAEKQGDPEVARRAVELVKRVAELLERIARESGSEEAKERAERVREEARELQERVKELREREG
notes: as for B2
B9: DHF49 (designed binder)
chain: MGHHHHHHSSGSDEEEARELIERAAEAAKRAVEAAERTGDPNVVELAKELVRLAQEAAEEVKRDPSSSDVNEALKLIVEAIEAAVRALEAAERTGDPVVRLLARELVRLAVEAAEEVQRNPSSSDVNEALKLIVEAIEAAVRALEAAERTGDPEVRELARELVRLAVEAAEEVQRNPSSEQVNEALKKIVKAIQEAVESLREAEESGDPEKRDKARLRVLEAVIRAMVVQIN
notes: as for B3
B10: DHF77 (designed binder)
chain: MGDSMKLVMLLLKKAVTLAKLNNDDMVALEIERAAKQIVLALAVNKSDEMAKVMLALAKAVLLAAKNNDDEVAREIARAAAEIVEALKENNSDEMAKVMLALAKAVLLAAKNNDDEVAREIARAAAEIVEALRENNSDEMAKKMLELAKRVLDAAKNNDDETAREIARQAAEEVEADRENLE
notes: as for B3
B11: DHF48 (designed binder)
chain: MAVEEAIRVMRLVREAEQVLLQAKMMGSERVLEMALRTAEEAAREAKLVLAVAELEGDPVVALIAVELVVRVAELLLRIAKESGSEEALERALRVAEEAARLAKRVLELAEKQGDPEVALRAVELVVRVAELLLRIAKESGSEEALERALRVAEEAARLAKRVLELAEKQGDPEVARRAVELVKRVAELLERIARESGSEEAKERAERVREEARELQERVKELREREGLE
notes: as for B3
B12: DHF34 (designed binder)
chain: AEVILLVAVLLLAKAVEAVLMGNRVAFRLAAELALRVAKLLVIMAKVEGDPELVLEAAKVALVVASLAALNGDKEVFKKAAESALEVAKRLVEVASKEGDPELVLEAAKVALKVAELAAKNGDKEVFKKAAESALEVAKRLVEVASKEGDPELVEEAAKVAEEVRKLAKKQGDEEVYEKARETAREVKEELKRVREEKG
notes: as for B2
B13: DHF76 (designed binder)
chain: MGLEKEVLRVKLVKICVLLARLKGDDTEEAREAARQAFEVVRLAAELAGIDSSEVLELAIRLIKECVENAQREGYDISLACMLAALAFKRVAEAAKRAGITSSEVLELAIRLIKECVENAQRDGYDISEACRAAAEAFKRVAEAAKRAGITSSETLKRAIEEIRKRVEEAQREGNEISEACRQAAEEFRKKAEELKRLE
notes: as for B3
B14: DHF36 (designed binder)
chain: MVEKNMLRLRLVKIVVENAKTKGDDTEEAREAAREAFEKVRVAAEVAGIDSSEVLELAIRLIKEVVLLALLEGYDISEAARAAAEAFVRVAVAAKIAGITSSEVLELAIRLIKEVVMNAMMEGYDISEAARAAAEAFKLVAEAAKRAGITSSETLKRAIEEIRKRVEEAQREGNNISVAALEAADEFRKKAEELKRRGLE
notes: as for B3
B15: DHF40 (designed binder)
chain: SSEKEELRERLVKICVELAKLKGDDTLKAAEAAEEAFRLVVLAAMLAGIDSSEVLELAIRLIKTCVVLAAMEGYDISEACRAAAEAFTRVAMAALRAGITSSLVLKAAIELIKECVLNAAVEGYDISEACRAAAEAFKRVAEAAKRAGITSLETLLRAIEEIRKRVEEAQREGNDISEACRQAAEEFRKKAEELKRRGDV
notes: as for B2
B16: DHF4 (designed binder)
chain: ADEELARILIEMAKTAAEAAQMAAEVTGDPRVRLLAVRLKMLALMAALEVILDPSSSDVNEALKLIVEAIEAAVKALLAAVRTGDPEVRELARELVRLAVEAAEEVQRNPSSSDVNEALKLIVEAIEAAVRALEAAERTGDPEVRELARELVRLAVEAAEEVQRNPSSEEVNEALKKIVKAIQEAVESLREAEESGDPEKREKARERVREAVERAEEVQRN
notes: as for B2
B17: DHF47 (designed binder)
chain: INLTIAILVAILVATMVELVAIRAQLEGNPELAASAMELRRAVEEAIEEAEKQGNPLLVLWVAVAAKVAAEVIKVAIQAEKEGNRDLFRAALELVRAVIEAIEEAVKQGNPELVEWVARAAKVAAEVIKVAIQAEKEGNRDLFRAALELVRAVIEAIEEAVKQGNPELVERVARLAKKAAELIKRAIRAEKEGNRDERREALERVREVIERIEELVRQGN
notes: as for B2
B18: DHF51 (designed binder)
chain: AVDQMIRVIVLVKEAEEALLNAKLLGSEMALTLALRTAEEAARVAKTVLELAEKDGDPVVALLAVELVVRVAELLLRIAKESGSEEALERALRVAEEAARLAKRVLELAEKQGDPEVALRAVELVVRVAELLLRIAKESGSEEALERALRVAEEAARLAKRVLELAEKQGDPEVARRAVELVKRVAELLERIARESGSEEAKERAERVREEARELQERVKELREREG
notes: as for B2
B19: DHF46 (designed binder)
chain: MGHHHHHHSSGTKEERVLLMKVAILAIVAAKKGNTDEVRKALELALLIAKVSGTTEAVKLALEVVARVAIEAARRGNTDAVREALEVALEIARESGTTEAVKLALEVVARVAIEAARRGNTEAVVEALLVALEIAKESGTEEAVRLALEVVKRVSNEALKQGNVDAVKVALEVRKMIEELSG
notes: vector pET28b; forms a homo-polymer; cryoEM PDB 6E9R
B20: DHF50 (designed binder)
chain: AIVQLMTVIAMAVIANALLIRAIVNGSAEDLEKALRTAEEAAREAKKVLEQAEKDGDPEVALRAVELVVLVAVNLLLIAKESGSEEALERALRVAEEAARLAKRVLELAEKVGDPEVALRAVELVVRVAELLLRIAKESGSEEALERALRVAEEAARLAKRVLELAEKQGDPEVARRAVELVKRVAELLERIARESGSEEAKERAERVREEARELQERVKELREREG
notes: as for B2

Target: the molecule itself
Assay: negative stain EM; 1 = filaments observed (self-assembly)
Excerpt: The designs were expressed in Escherichia coli under the control of a T7 promoter and purified using immobilized metal affinity chromatography (IMAC). […] IMAC eluates were concentrated, and filament formation was monitored by negative stain electron microscopy (EM); insoluble designs were characterized by EM either directly in the initial insoluble fraction, or after solubilization in guanidine hydrochloride, IMAC, and subsequent removal of denaturant.
Negative Stain Electron Microscopy. Soluble fractions were concentrated and insoluble fractions were resuspended in buffer (25 mM Tris, 75 mM NaCl, pH 8) for EM screening. A drop of 6 μL (1 μl sample instantly diluted with 5 μl of buffer) was applied on negatively glow discharged, carbon-coated 200-mesh copper grids (Ted Pella, Inc.), washed with Milli-Q™ Water and stained using 0.75% uranyl formate as described previously (28). The screening was performed on either a 120 kV Tecnai Spirit™ T12 transmission electron microscope (FEI, Hillsboro, Oreg.) or a 100 kV Morgagni M268 transmission electron microscope (FEI, Hillsboro, Oreg.). Images were recorded on a bottom mount Teitz CMOS™ 4 k camera system. The contrast of the images was enhanced in the Fiji software (29) for clarity.

Binding result, binds:
B1, B2, B3, B4, B5, B6, B7, B8, B9, B10, B11, B12, B13, B14, B15, B16, B17, B18, B19, B20
